# The RNAGym collection of RNA variant scans (doi:10.1093/molbev/msab373)
# B1: Azoarcus group I ribozyme (parent)
# chain: GUGCCUUGCGCCGGGAAACCACGCAAGGGAUGGUGUCAAAUUCGGCGAAACCUAAGCGCCCGCCCGGGCGUAUGGCAACGCCGAGCCAAGCUUCGGCGCCUGCGCCGAUGAAGGUGUAGAGACUAGACGGCACCCACCUAAGGCAAACGCUAUGGUGAAGGCAUAGUCCAGGGAGUGGCGAAAGUCACACAAACCGG
# Variants of: B1
# Assay: reverse-splicing fitness (ratio to wild type); higher = more active; in vitro selection; Mg2+ level not given
# Outline: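 An in vitro group I ribozyme library with randomized positions was T7-transcribed and gel-purified. In triplicate, 10 pmol RNA in EPPS pH 7.5 was reacted with 50 pmoles of a 30-nt RNA substrate for 1 h at 37 °C across several added MgCl2 levels (1–48 mM), then stopped with EDTA. Products were reverse transcribed from a substrate-complementary primer, PCR-amplified and sequenced (HiSeq 4000). Fitness is a variant's read proportion after selection over that before, normalised to wild type.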
row,Variant,reverse-splicing fitness
1,A111C A120U A145C C150U U176A,0.0649
2,A111C A120U A145C C150U U176C,0.0487
3,A111C A120U A145C C150U U176G,0.0246
4,A111C A120U,0.659
5,A111C A120U A145C C150G U176C,0.0215
6,A111C A120U A145C C150G U176A,0.0207
7,A111C A120U A145C C150G U176G,0.00459
8,A111C A120G C150U C169A U176A,0.0176
9,A111C A120G C150U C169A U176G,0.00513
10,A111C A120G C150U C169A U176C,0.0197
11,A111C A120G A145U C150G C169A,0.0153
12,A111C A120G A145U C150G C169G,0.0203
13,A111C A120G A145U C150G C169U,0.0209
14,A111C A120U C150G C169A U176C,0.00504
15,A111C A120U C150G C169A U176A,0.00683
16,A111C A120U C150G C169A U176G,0.00363
17,A111C A120G A145U C150G C169A U176C,0.0112
18,A111C A120G A145U C150G C169A U176A,0.0089
19,A111C A120G A145U C150G C169A U176G,0.00487
20,A111C A120U A145U C150U C169G U176C,0.00885
21,A111C A120U A145U C150U C169G U176G,0.00261
22,A111C A120U A145U C150U C169G U176A,0.00509
23,A111C A120U A145U C169A U176A,0.00268
24,A111C A120U A145U C169A U176G,0.00217

row,Variant,reverse-splicing fitness
1,A111C A120U A145U C169A U176C,0.00217
2,A111C A120U A145C C150U C169U U176A,0.00478
3,A111C A120U A145C C150U C169U U176C,0.00414
4,A111C A120U A145C C150U C169U U176G,0.00251
5,A111C A120U A145C C150G,0.0809
6,A111C A120U A145C C150U,0.18
7,A111C A120U A145C C150A,0.0314
8,A111C A120G A145U C150A C169U,0.018
9,A111C A120U A145C C150G C169U U176A,0.00402
10,A111C A120U A145C C150G C169U U176C,0.00313
11,A111C A120U A145C C150G C169U U176G,0.0023
12,A111C A120U C150G C169G,0.00853
13,A111C A120U C150G C169A,0.00675
14,A111C A120G C150G U176A,0.0109
15,A111C A120G C150G U176C,0.0173
16,A111C A120G C150G U176G,0.00348
17,A111C A120G A145U U176C,0.0406
18,A111C A120G A145U U176G,0.00568
19,A111C A120G A145U U176A,0.0392
20,A111C A120U C150G,0.0546
21,A111C A120U C150A,0.0711
22,A111C A120U A145G C150A U176C,0.0554
23,A111C A120U A145G C150A U176G,0.0111
24,A111C A120U A145G C150A U176A,0.046

row,Variant,reverse-splicing fitness
1,A111C A120U A145G C150G U176G,0.00515
2,A111C A120U A145G C150G U176A,0.0151
3,A111C A120U A145G C150G U176C,0.0349
4,A111C A120U A145G,0.675
5,A111C A120U A145C,0.598
6,A111C A120U A145U,0.629
7,A111C A120U A145U C169U U176C,0.0216
8,A111C A120U A145U C169U U176G,0.00286
9,A111C A120U A145U C169U U176A,0.0121
10,A111C A120U A145G C150G C169G U176A,0.00935
11,A111C A120U A145G C150G C169G U176C,0.00876
12,A111C A120U A145G C150G C169G U176G,0.00386
13,A111C A120U A145C C150U C169G U176G,0.00229
14,A111C A120U A145C C150U C169G U176C,0.00324
15,A111C A120U A145C C150U C169G U176A,0.00383
16,A111C A120U A145G C150U C169U,0.065
17,A111C A120U A145G C150U C169A,0.00795
18,A111C A120U A145G C150U C169G,0.0471
19,A111C A120U A145G C169G U176G,0.00174
20,A111C A120U A145G C169G U176A,0.0064
21,A111C A120U A145G C169G U176C,0.0098
22,A111C A120G A145U C150G,0.0193
23,A111C A120G A145U C150U,0.113
24,A111C A120U A145U C169G U176G,0.00209

row,Variant,reverse-splicing fitness
1,A111C A120U A145U C169G U176C,0.00935
2,A111C A120U A145U C169G U176A,0.00434
3,A111C A120G C150U C169U U176G,0.00549
4,A111C A120G C150U C169U U176C,0.0371
5,A111C A120G C150U C169U U176A,0.0337
6,A111C A120G C150A C169G U176G,0.00531
7,A111C A120G C150A C169G U176A,0.0175
8,A111C A120G C150A C169G U176C,0.0245
9,A111C A120U A145C C169G,0.0517
10,A111C A120U A145C C169A,0.00529
11,A111C A120U A145C C169U,0.0701
12,A111C A120G A145U C169U U176C,0.0424
13,A111C A120G A145U C169U U176G,0.00716
14,A111C A120G A145U C169U U176A,0.042
15,A111C A120U A145G U176G,0.0786
16,A111C A120U A145G U176C,0.277
17,A111C A120U A145G U176A,0.221
18,A111C A120U A145C C150G C169G U176C,0.0032
19,A111C A120U A145C C150G C169G U176A,0.00265
20,A111C A120U A145C C150G C169G U176G,0.00227
21,A111C A120U A145U C150A C169G,0.00604
22,A111C A120U A145U C150A C169A,0.00263
23,A111C A120U A145U C150A C169U,0.00653
24,A111C A120U A145U C169A,0.00546

row,Variant,reverse-splicing fitness
1,A111C A120U A145U C169U,0.0751
2,A111C A120U A145U C169G,0.0574
3,A111C A120U A145C C150U C169A U176A,0.00274
4,A111C A120U A145C C150U C169A U176G,0.00188
5,A111C A120U A145C C150U C169A U176C,0.00249
6,A111C A120U A145G C169U U176C,0.0232
7,A111C A120U A145G C169U U176G,0.00322
8,A111C A120U A145G C169U U176A,0.0138
9,A111C A120U A145G C150A C169A U176A,0.0071
10,A111C A120U A145G C150A C169A U176C,0.00438
11,A111C A120U A145G C150A C169A U176G,0.00318
12,A111C A120U A145G C150G C169A U176G,0.00554
13,A111C A120U A145G C150G C169A U176A,0.0118
14,A111C A120U A145G C150G C169A U176C,0.009
15,A111C A120U A145U C150U C169G,0.0348
16,A111C A120U A145U C150U C169U,0.0452
17,A111C A120U A145U C150U C169A,0.00426
18,A111C A120G C150U C169G,0.112
19,A111C A120G C150U C169A,0.0604
20,A111C A120G C150U C169U,0.0919
21,A111C A120G C150G C169A U176C,0.0109
22,A111C A120G C150G C169A U176A,0.00971
23,A111C A120G C150G C169A U176G,0.00481
24,A111C A120U A145G C150U U176C,0.239

row,Variant,reverse-splicing fitness
1,A111C A120U A145G C150U U176A,0.184
2,A111C A120U A145G C150U U176G,0.0303
3,A111C A120U C150A C169A,0.00557
4,A111C A120U C150A C169U,0.00953
5,A111C A120U C150A C169G,0.00691
6,A111C A120G A145U C150U C169U,0.106
7,A111C A120G A145U C150U C169G,0.133
8,A111C A120G A145U C150U C169A,0.0731
9,A111C A120U A145U U176A,0.221
10,A111C A120U A145U U176C,0.271
11,A111C A120U A145U U176G,0.0748
12,A111C A120U A145G C150G C169U U176C,0.00769
13,A111C A120U A145G C150G C169U U176G,0.00436
14,A111C A120U A145G C150G C169U U176A,0.00885
15,A111C A120G C150U U176C,0.0344
16,A111C A120G C150U U176G,0.00599
17,A111C A120G C150U U176A,0.0245
18,A111C A120U C150A C169G U176C,0.00434
19,A111C A120U C150A C169G U176A,0.00448
20,A111C A120U C150A C169G U176G,0.00245
21,A111C A120U A145U C150G C169U,0.00794
22,A111C A120U A145U C150G C169G,0.00663
23,A111C A120U A145U C150G C169A,0.00366
24,A111C A120U A145C C150G C169A U176C,0.00297

row,Variant,reverse-splicing fitness
1,A111C A120U A145C C150G C169A U176G,0.00224
2,A111C A120U A145C C150G C169A U176A,0.00246
3,A111C A120G C150A C169U U176G,0.0056
4,A111C A120G C150A C169U U176C,0.024
5,A111C A120G C150A C169U U176A,0.0211
6,A111C A120U A145U C150U U176G,0.0348
7,A111C A120U A145U C150U U176A,0.182
8,A111C A120U A145U C150U U176C,0.215
9,A111C A120U A145G C150A C169G U176G,0.00255
10,A111C A120U A145G C150A C169G U176A,0.00653
11,A111C A120U A145G C150A C169G U176C,0.00682
12,A111C A120U A145C C169G U176G,0.0018
13,A111C A120U A145C C169G U176A,0.00676
14,A111C A120U A145C C169G U176C,0.00626
15,A111C A120U A145C C150A C169A U176G,0.00226
16,A111C A120U A145C C150A C169A U176A,0.00259
17,A111C A120U A145C C150A C169A U176C,0.00233
18,A111C A120U A145U C150A C169U U176C,0.0049
19,A111C A120U A145U C150A C169U U176G,0.00271
20,A111C A120U A145U C150A C169U U176A,0.00386
21,A111C A120G C150G C169U U176A,0.00966
22,A111C A120G C150G C169U U176C,0.0154
23,A111C A120G C150G C169U U176G,0.00441
